Laboratory results taken from publication PMC12041577 (Nature Communications, 2025).
Numbering of substitutions follows the chain as printed. Numbers in names are those of the source.

B1: ad2-100K truncation mutant Δ680–805 with a C terminal 2 × Strep tag (domain or fragment, human adenovirus type 2 (ad2), UniProt P24932 1-679, looked up)
chain: MESVEKEDSLTAPFEFATTASTDAANAPTTFPVEAPPLEEEEVIIEQDPGFVSEDDEDRSVPTEDKKQDQDDAEANEEQVGRGDQRHGDYLDVGDDVLLKHLQRQCAIICDALQERSDVPLAIADVSLAYERHLFSPRVPPKRQENGTCEPNPRLNFYPVFAVPEVLATYHIFFQNCKIPLSCRANRSRADKQLALRQGAVIPDIASLDEVPKIFEGLGRDEKRAANALQQENSENESHCGVLVELEGDNARLAVLKRSIEVTHFAYPALNLPPKVMSTVMSELIVRRARPLERDANLQEQTEEGLPAVGDEQLARWLETREPADLEERRKLMMAAVLVTVELECMQRFFADPEMQRKLEETLHYTFRQGYVRQACKISNVELCNLVSYLGILHENRLGQNVLHSTLKGEARRDYVRDCVYLFLCYTWQTAMGVWQQCLEERNLKELQKLLKQNLKDLWTAFNERSVAAHLADIIFPERLLKTLQQGLPDFTSQSMLQNFRNFILERSGILPATCCALPSDFVPIKYRECPPPLWGHCYLLQLANYLAYHSDIMEDVSGDGLLECHCRCNLCTPHRSLVCNSQLLSESQIIGTFELQGPSPDEKSAAPGLKLTPGLWTSAYLRKFVPEDYHAHEIRFYEDQSRPPNAELTACVITQGHILGQLQAINKARQEFLLRKGR
B2: ad2-100K truncation mutant Δ693–805 with a C terminal 2 × Strep tag (domain or fragment, human adenovirus type 2 (ad2), UniProt P24932 1-692, looked up)
chain: MESVEKEDSLTAPFEFATTASTDAANAPTTFPVEAPPLEEEEVIIEQDPGFVSEDDEDRSVPTEDKKQDQDDAEANEEQVGRGDQRHGDYLDVGDDVLLKHLQRQCAIICDALQERSDVPLAIADVSLAYERHLFSPRVPPKRQENGTCEPNPRLNFYPVFAVPEVLATYHIFFQNCKIPLSCRANRSRADKQLALRQGAVIPDIASLDEVPKIFEGLGRDEKRAANALQQENSENESHCGVLVELEGDNARLAVLKRSIEVTHFAYPALNLPPKVMSTVMSELIVRRARPLERDANLQEQTEEGLPAVGDEQLARWLETREPADLEERRKLMMAAVLVTVELECMQRFFADPEMQRKLEETLHYTFRQGYVRQACKISNVELCNLVSYLGILHENRLGQNVLHSTLKGEARRDYVRDCVYLFLCYTWQTAMGVWQQCLEERNLKELQKLLKQNLKDLWTAFNERSVAAHLADIIFPERLLKTLQQGLPDFTSQSMLQNFRNFILERSGILPATCCALPSDFVPIKYRECPPPLWGHCYLLQLANYLAYHSDIMEDVSGDGLLECHCRCNLCTPHRSLVCNSQLLSESQIIGTFELQGPSPDEKSAAPGLKLTPGLWTSAYLRKFVPEDYHAHEIRFYEDQSRPPNAELTACVITQGHILGQLQAINKARQEFLLRKGRGVYLDPQSGEELN
B3: ad2-100K fused with a C terminal 2 × Strep tag (natural protein, human adenovirus type 2 (ad2), UniProt P24932 1-805, looked up)
chain: MESVEKEDSLTAPFEFATTASTDAANAPTTFPVEAPPLEEEEVIIEQDPGFVSEDDEDRSVPTEDKKQDQDDAEANEEQVGRGDQRHGDYLDVGDDVLLKHLQRQCAIICDALQERSDVPLAIADVSLAYERHLFSPRVPPKRQENGTCEPNPRLNFYPVFAVPEVLATYHIFFQNCKIPLSCRANRSRADKQLALRQGAVIPDIASLDEVPKIFEGLGRDEKRAANALQQENSENESHCGVLVELEGDNARLAVLKRSIEVTHFAYPALNLPPKVMSTVMSELIVRRARPLERDANLQEQTEEGLPAVGDEQLARWLETREPADLEERRKLMMAAVLVTVELECMQRFFADPEMQRKLEETLHYTFRQGYVRQACKISNVELCNLVSYLGILHENRLGQNVLHSTLKGEARRDYVRDCVYLFLCYTWQTAMGVWQQCLEERNLKELQKLLKQNLKDLWTAFNERSVAAHLADIIFPERLLKTLQQGLPDFTSQSMLQNFRNFILERSGILPATCCALPSDFVPIKYRECPPPLWGHCYLLQLANYLAYHSDIMEDVSGDGLLECHCRCNLCTPHRSLVCNSQLLSESQIIGTFELQGPSPDEKSAAPGLKLTPGLWTSAYLRKFVPEDYHAHEIRFYEDQSRPPNAELTACVITQGHILGQLQAINKARQEFLLRKGRGVYLDPQSGEELNPIPPPPQPYQQPRALASQDGTQKEAAAAAAATHGRGGILGQSGRGGFGRGGGDDGRLGQPRRSFRGRRGVRRNTVTLGRIPLAGAPEIGNRSQHRYNLRSSGAAGTACSPTQP
modifications: intermolecular disulfide bonds C515-C516' and C516-C515' between the two protomers
B4: ad2-100K mutant C515S-C516S-strepII (natural protein, human adenovirus type 2 (ad2), UniProt P24932 1-805, looked up)
chain: B3 chain with C515S, C516S

Molecular target: the molecule itself
Assay: GraFix

Row | Protein | binding result | stoichiometry N
1 | B1 | binds | –
2 | B2 | binds | –
3 | B3 | – | 2
4 | B4 | binds | –
